According to patent US20250277030A1, “ANTI-NAPI2B ANTIBODIES AND METHODS OF USE” (Zymeworks BC Inc., priority 2022, published 2025):

What was measured:
mouse NaPi2b = biological target: T1, mouse NaPi2b (Mus musculus, UniProt Q9DBP0); experiment: Flow cytometry binding to HEK293-6e cells transfected with mouse NaPi2b (Example 5); settings: transfected HEK293-6e cells
T1 construct: expressed in transfected cells; host or cells: HEK293-6e
T1 sequence (Q9DBP0 1-697): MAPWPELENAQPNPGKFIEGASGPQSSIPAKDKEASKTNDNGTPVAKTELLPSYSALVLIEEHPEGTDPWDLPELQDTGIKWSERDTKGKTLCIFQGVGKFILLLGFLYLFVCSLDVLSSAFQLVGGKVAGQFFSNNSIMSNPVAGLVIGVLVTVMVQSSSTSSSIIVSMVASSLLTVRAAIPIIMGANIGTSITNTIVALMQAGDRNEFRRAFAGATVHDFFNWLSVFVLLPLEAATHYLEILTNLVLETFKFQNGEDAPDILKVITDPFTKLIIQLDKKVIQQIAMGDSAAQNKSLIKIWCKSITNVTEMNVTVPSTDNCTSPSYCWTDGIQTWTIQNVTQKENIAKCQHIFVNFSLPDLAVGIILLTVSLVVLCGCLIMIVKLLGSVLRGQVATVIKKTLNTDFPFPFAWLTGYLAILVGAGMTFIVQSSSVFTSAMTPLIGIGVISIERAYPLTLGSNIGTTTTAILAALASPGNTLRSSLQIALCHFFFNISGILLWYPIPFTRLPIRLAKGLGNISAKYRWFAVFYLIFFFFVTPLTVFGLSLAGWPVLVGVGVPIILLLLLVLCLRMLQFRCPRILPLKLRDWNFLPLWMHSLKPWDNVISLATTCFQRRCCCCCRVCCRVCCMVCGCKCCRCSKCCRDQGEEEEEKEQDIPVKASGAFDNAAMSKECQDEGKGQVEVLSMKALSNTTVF
Protocol: (§1) The binding cross-reactivity of humanized antibody variant v29456 to human, cynomolgus and mouse NaPi2b was assessed by flow cytometry using HEK293-6e transfected cells.
(§2) Briefly, HEK293-6e cells were transfected for ˜24 hours to transiently express human NaPi2b, cynomolgus or mouse NaPi2b, at 1 μg of DNA per 1 million cells. Following transfection, 50,000 cells per well were seeded in V-bottom 96-well plates and incubated with 200 nM of primary antibody for 18-24 hours at 4° C. to prevent internalization. Post-incubation, cells were washed and stained with anti-Human IgG Fc AF647 conjugate (Jackson Immuno Research Labs, West Grove, PA, Cat. No. 109-605-098, Lot. No. 124868) at 4° C. for 1 hour. Following staining and washing, fluorescence was detected by flow cytometry on BD LSRFortessa™ Cell Analyzer (BD Biosciences, Franklin Lake, NJ) with 10,000 minimum events collected per well. The AF647/APC-A GeoMean (fluorescence signal geometric mean, proportional to anti-Human AF647 binding) was calculated for the live singlet cell population for each primary antibody using FlowJo™ v8 software (BD Biosciences, Franklin Lake, NJ). The Bmax and Kd of each primary antibody were calculated using GraphPad Prism Version 9 (GraphPad Software, San Diego, CA)

[1] = biological target: T2, NaPi2b expressed on TOV-21G cells (Homo sapiens, UniProt O95436); experiment: Cellular binding to TOV-21G cells by flow cytometry (Example 19); settings: NB = no binding (apparent Kd >150 nM)
T2 construct: IGROV-1 and TOV-21G cells express endogenous NaPi2b at high and moderate levels, respectively; endogenous in cells; host or cells: TOV-21G
T2 sequence (O95436 1-690): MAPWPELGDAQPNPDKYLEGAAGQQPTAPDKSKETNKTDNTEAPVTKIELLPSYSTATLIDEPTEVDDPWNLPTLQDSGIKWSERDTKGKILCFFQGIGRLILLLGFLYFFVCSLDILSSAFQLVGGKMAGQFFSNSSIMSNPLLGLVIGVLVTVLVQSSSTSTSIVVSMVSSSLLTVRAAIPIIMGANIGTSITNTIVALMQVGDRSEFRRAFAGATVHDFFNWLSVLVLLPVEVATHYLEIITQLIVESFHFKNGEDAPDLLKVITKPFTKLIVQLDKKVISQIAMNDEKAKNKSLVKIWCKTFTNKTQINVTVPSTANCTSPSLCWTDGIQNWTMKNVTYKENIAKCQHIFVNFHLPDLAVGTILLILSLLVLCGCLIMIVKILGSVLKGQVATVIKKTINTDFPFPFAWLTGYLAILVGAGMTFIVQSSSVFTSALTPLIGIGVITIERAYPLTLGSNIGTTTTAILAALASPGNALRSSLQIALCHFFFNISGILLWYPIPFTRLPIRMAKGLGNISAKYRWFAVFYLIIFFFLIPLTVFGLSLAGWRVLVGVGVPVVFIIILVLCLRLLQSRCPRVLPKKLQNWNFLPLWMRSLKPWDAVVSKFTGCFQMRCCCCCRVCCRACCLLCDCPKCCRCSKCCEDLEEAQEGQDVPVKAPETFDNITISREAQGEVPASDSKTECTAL
Protocol: (§3) Briefly, cells were seeded at 50,000 cells/well in conical-bottom 96-well plates and treated with test antibody for 24 hours at 4° C. to prevent internalization. Palivizumab (anti-RSV antibody, v22277) was included as a negative control. […] Following incubation, cells were washed and stained with anti-Human IgG Fc AF647 conjugate (Jackson Immuno Research Labs, West Grove, PA; Cat. No. 109-605-098) at 4° C. for 30 min. Following incubation and washing, fluorescence was detected by flow cytometry on a BD LSRFortessa™ Cell Analyzer (BD Biosciences, Franklin Lake, NJ) with 1,000 minimum events collected per well. The AF647/APC-A GeoMean (fluorescence signal geometric mean, proportional to anti-Human AF647 binding) was calculated for the live cell population using FlowJo™ Version 10.8.1 (BD Biosciences, Franklin Lake, NJ) and plotted for each test antibody using GraphPad Prism Version 9 (GraphPad Software, San Diego, CA).
(§4) The ability of the humanized antibody variants v38591 and v29456 to bind to NaPi2b expressed on cells was assessed on endogenous NaPi2b-expressing tumor cell lines IGROV-1 (ovarian adenocarcinoma) and TOV-21G (ovarian carcinoma) by flow cytometry. IGROV-1 and TOV-21G cells express endogenous NaPi2b at high and moderate levels, respectively, as described in Example 10.
(§5) Cellular binding was performed according to methods described in Example 13.

[2] = biological target: T3, NaPi2b expressed on IGROV-1 cells (Homo sapiens, UniProt O95436); experiment: Cellular binding to IGROV-1 cells by flow cytometry (Example 19); settings: NB = no binding (apparent Kd >150 nM)
T3 construct: IGROV-1 cells express endogenous NaPi2b at a high level; endogenous in cells; host or cells: IGROV-1
T3 sequence (O95436 1-690): T2 sequence (O95436 1-690)
Protocol: as §3, §4, §5

human NaPi2b = biological target: T4, human NaPi2b (Homo sapiens, UniProt O95436); experiment: Flow cytometry binding to HEK293-6e cells transfected with human NaPi2b (Example 5); settings: transfected HEK293-6e cells
T4 construct: host or cells: HEK293-6e
T4 sequence (O95436 1-690): T2 sequence (O95436 1-690)
Protocol: as §1, §2

“v22277: anti-RSV antibody palivizumab, negative control; has a heterodimeric Fc [reference compound]” was tested, and the “Binding to mouse NaPi2b, in words” value (mouse NaPi2b) was “did not bind”, the Kd [1] was over 150 nM and the Kd [2] was over 150 nM. For the same substance, the “Binding to human NaPi2b, in words” value (human NaPi2b) was “did not bind”.
